Legend:
Glu49 = assay: NMR; settings: 300 K, not stated (50 mM phosphate buffers), 50 mM phosphate buffers at different pH, micelle-bound
Glu59 = assay: NMR; settings: 300 K, not stated (50 mM phosphate buffers), 50 mM phosphate buffers at different pH, micelle-bound
[1] = L2 peptide free (no L1 or M peptide)
[2] = L2 peptide in the presence of the GldL TMH1 (L1) and GldM TMH (M) peptides at 1:1:1 molar ratio

## KKVMLSIGLLTEALIFALSAFEPVKK
Glu49; [1]
  pKa: 5.54 ± 0.04
Glu49; [2]
  pKa: 5.83 ± 0.02
Glu59; [1]
  pKa: 5.65 ± 0.13
Glu59; [2]
  pKa: 5.83 ± 0.02

Source: PMC8986121
